Several values for one entry are separate records, joined by “and”; a condition that tells them apart may be missing. Equal entries are not always repeated. Entries after “also recorded” stand apart in the source; their conditions may differ.
Key:
[1] = tested on: transporter-overexpressing SR8D8; assay: Inhibition of xylose uptake by glucose; format: cell-based, S. cerevisiae; settings: 25 mM or 100 mM glucose
Procedure: SR8D8 containing the respective plasmid was grown on selective YPE medium to an OD600 of 1-1.5, harvested by centrifugation, and washed twice in ice-cold uptake buffer (100 mM potassium phosphate, pH 6.5). C14 labeled sugar uptake assay was done according to Boles and Oreb. Radioactivity was analyzed in a Beckman-Coulter LS6500 multi-purpose liquid scintillation counter (Beckman-Coulter, CA, USA).
Sugar solutions contained 0.135-0.608 μCi of D-[U-^14C]-glucose (290-300 mCi/mmol) or D-[1-^14C]-xylose (55 mCi/mmol) (PerkinElmer, MA, USA). Calculation of Km (Michaelis constant), Vmax (maximal initial uptake velocity), and K (inhibitor constant for competitive inhibition) was done by nonlinear regression analysis and global curve fitting in Prism 7 (GraphPad Software) with values of three independent measurements.

[2] = tested on: SR8D8 expressing transporter; assay: Glucose and xylose mixed sugar flask fermentation (20 g/L each); format: cell-based, S. cerevisiae; settings: 20 g/L of glucose and xylose, YP medium
Procedure: (§1) For flask fermentation, a single colony was inoculated to 5 or 25 mL YPE ([…], 1% w/v yeast extract, 2% peptone, 5% ethanol) supplemented with 200 μg/ml of geneticin to obtain seed cultures. […] Flask fermentations were maintained at 30° C. and 250 rpm.
(§2) A xylose fermenting S. cerevisiae yeast (SR8) with HXT1-7Δ, GAL2Δ deletions was used for transporter screening and characterization (SR8D8). SR8D8 was grown in YPE medium/plate (10 g/L yeast extract, 20 g/L peptone, and 5 g/L ethanol). […] SRD8 strains transformed with plasmid containing KanMX marker conferring resistance to G418 (geneticin) were propagated on YPE supplemented with 200 μg/ml of geneticin. For growth and flask fermentation experiments all media was supplemented with 200 μg/ml of geneticin for plasmid maintenance. Biomass was calculated from the OD600 measured using a Biomate 5 UV-visible spectrophotometer (Fisher, NY, USA). All growth rates were measured using a Bioscreen C plate reader system (Growth Curves USA, Piscataway, NJ, USA). A 2 μL inoculum of fully grown culture was added into 200 μL YP (+200 μg/ml Geneticin) with varying concentrations of different sugars. A wide band filter (420-580 nm) was used to measure optical density. Bioscreen C values represent mean value from three biological replicates. In all cases, the Bioscreen C was set to maintain a temperature of 30° C. and high aeration through high continuous shaking.

[3] = tested on: SR8D8 expressing transporter; assay: Sole glucose or xylose flask fermentation; format: cell-based, S. cerevisiae; settings: glucose or xylose conditions, YP medium
Procedure: as §1, §2

[4] = tested on: SR8D8 expressing transporter; assay: Transporter screening for growth on glucose or xylose (Bioscreen C); format: cell-based, S. cerevisiae; settings: glucose or xylose containing medium, OD600
Procedure: ScGal2 expressing SR8D8 were used as a positive control (FIG. 3). Most of the AtSWEETs and putative oleaginous transporters expressing strains were not able to grow on glucose or xylose.
as §2

[5] = tested on: SR8D8 expressing transporter; assay: Mixed sugar fermentation at industrially relevant sugar concentrations; format: cell-based, S. cerevisiae; settings: 7% glucose and 4% xylose (70 g/L, 40 g/L)
Procedure: as §1

[6] = substrate: OC[C@H]1OC(O)[C@H](O)[C@@H](O)[C@@H]1O; assay: cells, lysate or membranes; settings: other: initial glucose uptake (5 s), 30° C., pH 6.5, 0.2 to 100 mM glucose, ± SEM in Table 1

Molecule | inhibition of xylose transport by glucose (in words) [1] | glucose and xylose mixed sugar fermentation phenotype [2] | sole sugar fermentation performance [3] | growth / transport capacity on glucose or xylose [4] | mixed sugar utilization profile at high sugar [5] | Km [6] | glucose and xylose mixed sugar fermentation phenotype ([2]; listed as SWEET7) | growth / transport capacity on glucose or xylose ([4]; listed as SWEET7)
LST1_205437: Lipomyces starkeyi LST1 transporter polypeptide, SEQ ID NO:4, GenBank ODQ75362.1 (protein, Lipomyces starkeyi LST1_204537 transporter polypeptide) MGFLGFLNRSQASEPVEKESTATTPSEGRTPQRPLSPAVGVPLEQDFETQLSAKDAPLLAFILGGVASVGGFMFGYQTGQISGFLEMSDFKTRFAACNSQTGQCTFSAARQGTIVGLFSIGTLIGSLIAAPIADRIGRRLTISFWAFFFMIGTVLEISSSHVWVQFAMGRFVGGLGIGALSVVVPMYQSESTPRMIRGVIVSSYQLMVTLGIWLAYMINWGTESLQGSQSWRITNGMSFLWALVLGIAILGLPESPRYAYRVGREEEARKNMARLYKLSPNHPIINLEIQEIQEKLDAERVGGDHPWYEIFTGPRMLYRTILGMVLQAGQQLTGANYFFYYGTTVFSATGLSNSYVTQIILGSVNVGGTIAGLWLIENCGRRKALMGGAAWMFMCFMVFAFVGHFSLDHQNPEATPQAGAALVVFSCLFIIAFAMTWGPIVWAIVGELYPARYRATCMGLATSSNWLFNFLIGFFTTFITGDIDYLYGLVFAGCCFALFFIVYFFVIETKGRSLEEIDTMYVLHVNPINSAKWDSSQLMRDGDGLVNTDDLYLEAGGNRFAKDEHSAHEMIPSHDENAPGPSHTSHADIEKAESSGAESRDAL | partial inhibition of xylose uptake by glucose | co-consumption of glucose and xylose; also recorded: partial co-fermentation; also recorded: simultaneously utilize glucose and xylose | enabled glucose and xylose fermentation, depleting all provided sugars | substantial growth on xylose and glucose; also recorded: capable of sustaining an efficient growth on glucose or xylose | partial xylose and glucose co-consumption | – | – | –
Arabidopsis thaliana AtSWEET7 transporter, wild type (Table 2: SEQ ID NO: 3; FIG. 12: SEQ ID NO:2) (Arabidopsis thaliana) (protein) MVFAHLNLLRKIVGIIGNFIALCLFLSPTPTFVRIVKKKSVEEYSPIPYLATLINCLVWVLYGLPTVHPDSTLVITINGTGILIEIVFLTIFFVYCGRQKQRLIISAVIAAETAFIAILAVLVLTLQHTTEKRTMSVGIVCCVFNVMMYASPLSVMKMVIKTKSVEFMPFWLSVAGFLNAGVWTIYALMPFDPFMAIPNGIGCLFGLAQLILYGAYYKSTKRIMAERENQPGYVGLSSAIARTGSEKTANTNQEPNNV | do not have any xylose transport inhibition in the presence of both 25 mM and 100 mM glucose | simultaneous co-consumption of glucose and xylose with almost the same rates of sugar consumption; also recorded: true co-fermentation phenotype | enabled glucose and xylose fermentation, depleting all provided sugars | substantial growth on xylose and glucose; also recorded: both glucose and xylose transport capacity | co-consumption of glucose and xylose even at higher glucose concentrations | 75 mM and 74.1 ± 13.0 mM | simultaneously utilize glucose and xylose | capable of sustaining an efficient growth on glucose or xylose
